This note sets out measurements from paper PMC9087215.

The target of data set [1] is Klebsiella pneumoniae PriA helicase (Klebsiella pneumoniae subsp. pneumoniae MGH 78578) (UniProt A6TGC5).
In a further data set the target is PaSSB(W54A) (Pseudomonas aeruginosa, UniProt P40947 1-165, W54A). The data set is described as follows: EMSA.
The target in the next data set is PaSSB (Pseudomonas aeruginosa, UniProt P40947 1-165). The data set can be described thus: EMSA.
The next data set addresses PaSSB(W40A) (Pseudomonas aeruginosa, UniProt P40947 1-165, W40A). The data set can be described thus: EMSA. For orientation: Mobility shift assays separate free from complexed probe on a gel.
Another data set concerns the target PaSSB(F60A) (Pseudomonas aeruginosa, UniProt P40947 1-165, F60A). The data set is described as follows: EMSA.
For another data set, the target named is PaSSB(W88A) (Pseudomonas aeruginosa, UniProt P40947 1-165, W88A). The data set is described as follows: EMSA.

As to “KpSSBn-StSSBc chimeric protein (from UniProt P0A2F6 92-176)”, in data set [1], the ATPase activity of KpPriA with 10 μM KpSSBn-StSSBc, fold stimulation stood at 14 fold.
TTTTTTTTTTTTTTTTTTTTTTTTTTTTTTTTTTTTTTTTTTTTTTTTTT (ssDNA) [dT50]: the “apparent K (half saturation)” value with PaSSB(W54A) came out at 522 ± 26 nM; in the data set with PaSSB, 355 ± 21 nM; with PaSSB(W40A) it was 434 ± 19 nM; in the data set with PaSSB(F60A) it was 569 ± 24 nM; in the data set with PaSSB(W88A), 1230 ± 61 nM.
